Source: patent US6669963B1, “Stable particle in liquid formulations” (Elan Drug Delivery Limited, priority 1997, dated 2003)

How the values were obtained:
phage lambda DNA = assay: Storage stability of EcoR1 preparations, residual titre by complete cutting of DNA; format: physicochemical
Description: Restriction enzymes are customarily stored in freezers at −20° C. in buffers containing 50% glycerol to prevent ice formation. Even under these conditions some of them have a limited storage life and need to be replaced at intervals. Several enzymes were dried using the technique of the present invention with similar results. The data with one enzyme, EcoR1, is illustrated. The enzyme solution was diluted 100 fold in SC buffer (Colaco C. A. L. S., Sen S., Thangavelu M., Pinder S. and Roser B. “Extraordinary stability of enzymes dried in trehalose: Simplified molecular biology.” Biotechnol. 10 1007-1011 (1992)). The dried enzyme was produced in the spray dryer as above, sealed in vials with or without oil and its stability was compared with fresh liquid enzyme diluted in cutting buffer at three storage temperatures 4° C., 37° C. and 55° C. To determine residual activity after storage, the enzyme was recovered into the acueous phase as described earlier, diluted with SC buffer in a 2-fold dilution series and used to cut 0.5 μg of phage lambda DNA (Life Technologies Inc). The completeness of cutting at various dilutions was assessed by separating the DNA fragments by agarose gel electrophoresis in which the bands were visualised under UV light by ethidium bromide staining.

[1] = Storage stability of EPO preparations, residual EPO by Quantikine IVD EPO-specific immunoassay; format: physicochemical; conditions: within one day
Description: Freeze dried EPO was re-hydrated and diluted 100 fold with a buffer of the following composition:
and dried in a spray dryer as above. The powder was weighed into 125 mg aliquots and subjected to secondary drying at a temperature ramping from 40° C. to 80° C. at a rate of 15 degrees per hour under vacuum and then either sealed in a serum vial or re-suspended in 0.5 ml of mineral oil BP and sealed. They were then stored at 37° C. or 55° C. for up to 15 days. At the end of the storage period, residual EPO was extracted into phosphate buffered saline containing 0.01% BSA as above and the amount remaining in the extract was measured using a Quantikine IVD EPO-specific immunoassay (RD Systems Inc).

**Q.** Which activity on storage (phage lambda DNA; 4° C., over 28 days) does the source give for “fresh enzyme: Restriction Endonuclease EcoR1, fresh liquid enzyme diluted in cutting buffer” here?
**A.** stable

**Q.** What about the activity on storage (phage lambda DNA; 37° C., by 28 days) of the same substance?
**A.** lost essentially all activity

**Q.** And the “time to completely inactive” value (phage lambda DNA; 55° C.)?
**A.** ≤ 7 days

**Q.** Which loss of activity ([1]; 37° C.) does the source give for “fresh EPO: Recombinant Human Erythropoietin, not dried in trehalose” here?
**A.** 88%

**Q.** And the loss of activity ([1]; 55° C.)?
**A.** > 95%
